Test results as given in PMC7751889 (Molecular cell, 2019).

Molecular target: T1, Med15 (residues 1-651 Δ239-271, Δ373-483), mediator component (yeast, UniProt P19659 1-651, Δ239–271 | Δ373–483)
T1 sequence (looked up): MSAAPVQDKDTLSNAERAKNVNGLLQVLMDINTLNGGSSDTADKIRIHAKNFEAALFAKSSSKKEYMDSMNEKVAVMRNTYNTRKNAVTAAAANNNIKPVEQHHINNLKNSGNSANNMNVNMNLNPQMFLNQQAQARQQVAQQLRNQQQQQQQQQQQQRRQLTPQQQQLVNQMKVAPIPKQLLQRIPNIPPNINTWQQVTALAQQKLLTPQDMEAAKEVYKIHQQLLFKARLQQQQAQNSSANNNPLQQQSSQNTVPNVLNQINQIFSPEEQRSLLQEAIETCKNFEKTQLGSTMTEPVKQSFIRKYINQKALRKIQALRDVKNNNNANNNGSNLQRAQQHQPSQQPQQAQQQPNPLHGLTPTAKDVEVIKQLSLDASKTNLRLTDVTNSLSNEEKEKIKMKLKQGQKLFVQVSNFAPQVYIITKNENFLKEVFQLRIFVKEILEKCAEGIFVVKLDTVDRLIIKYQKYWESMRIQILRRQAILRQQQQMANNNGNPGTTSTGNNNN
Test: BLI

Kd: 100 nM
B1: Met4 (residues 76 to 160), containing both the UIM and the UIML domains (tandem UBD) (domain or fragment, yeast, UniProt P32389 76-160, looked up)
chain: GNTNLYDHAVTPEILLEQLAYVDNFIPSLDNEFSNVDWNVNTTHNNANNNGADTFSSINANPFDLDEQLAIELSAFADDSFIFPD
modifications: biotin on the Avi tag (BirA)
